The chains are these.
T1: SecY (wild type, subunit of Escherichia coli SecYEG) (E. coli, UniProt P0AGA2 1-443)
T1 sequence: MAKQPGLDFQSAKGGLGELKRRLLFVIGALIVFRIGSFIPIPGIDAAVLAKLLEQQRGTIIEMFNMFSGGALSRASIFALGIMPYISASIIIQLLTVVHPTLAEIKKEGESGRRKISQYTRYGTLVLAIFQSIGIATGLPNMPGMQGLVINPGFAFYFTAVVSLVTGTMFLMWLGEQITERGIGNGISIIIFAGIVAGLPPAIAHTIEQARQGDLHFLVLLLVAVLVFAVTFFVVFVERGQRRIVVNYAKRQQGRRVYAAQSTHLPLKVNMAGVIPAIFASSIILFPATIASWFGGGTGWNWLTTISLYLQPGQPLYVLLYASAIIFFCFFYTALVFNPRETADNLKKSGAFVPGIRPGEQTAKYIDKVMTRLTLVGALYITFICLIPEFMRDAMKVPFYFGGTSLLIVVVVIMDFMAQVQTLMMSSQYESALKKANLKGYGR

B1: SecE (subunit of Escherichia coli SecYEG) (natural protein)
chain: MSANTEAQGSGRGLEAMKWVVVVALLLVAIVGNYLYRDIMLPLRALAVVILIAAAGGVALLTTKGKATVAFAREARTEVRKVIWPTRQETLHTTLIVAAVTAVMSLILWGLDGILVRLVSFITGLRF
B2: SecG (subunit of Escherichia coli SecYEG) (natural protein)
chain: MYEALLVVFLIVAIGLVGLIMLQQGKGADMGASFGAGASATLFGSSGSGNFMTRMTALLATLFFIISLVLGNINSNKTNKGSEWENLSAPAKTEQTQPAAPAKPTSDIPN

Assay [1] concerns the target T1, SecY (wild type, subunit of Escherichia …). The assay is described as follows: native MS.
Assay [2] has as its target B1. The assay is described as follows: native MS.

For the molecule B1, in assay [1], the binding result was “binds”. As to B2, the binding result in assay [2] and in assay [1] was “binds” in each case.

Source of the values: doi:10.1101/202184 (bioRxiv, 2017).
